# Tested on: Escherichia coli TOP10
# Experiment: shrunken log2 fold change of peptide-encoding DNA abundance (4.5 h post-induction vs induction); higher = less antimicrobial activity (less host growth inhibition)
# Details: time post-induction: 4.5 h; library: site-saturation at positions 5, 18, 19, 20
# 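Also: peptides expressed intracellularly from a pBAD plasmid library in pooled LB shake-flask culture, induced with 0.3% L-arabinose, DNA abundance read by NGS, three biological replicates, DESeq2 with apeglm shrinkage.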
row,Sequence,shrunken log2 fold change
1,RRIRCRPPRLPRPRPRPAQIPRP,0.00931
2,RRIRMRPPRLPRPRPRPALPPRP,0.363
3,RRIRNRPPRLPRPRPRPPVPPRP,0.384
4,RRIRIRPPRLPRPRPRPPPFPRP,0.481
5,RRIRARPPRLPRPRPRPEIWPRP,1.55
6,RRIRSRPPRLPRPRPRPCDWPRP,0.0154
7,RRIRERPPRLPRPRPRPHMTPRP,0.0464
8,RRIRFRPPRLPRPRPRPLYEPRP,-0.664
9,RRIRKRPPRLPRPRPRPICNPRP,0.102
10,RRIRGRPPRLPRPRPRPYYKPRP,-0.607
11,RRIRMRPPRLPRPRPRPWTLPRP,-0.0343
12,RRIRNRPPRLPRPRPRPPDIPRP,-0.341
13,RRIRNRPPRLPRPRPRPAWSPRP,0.0515
14,RRIRMRPPRLPRPRPRPVSAPRP,0.617
15,RRIRQRPPRLPRPRPRPLGWPRP,0.8
16,RRIRERPPRLPRPRPRPFRCPRP,0.00668
17,RRIRNRPPRLPRPRPRPIWMPRP,0.178
18,RRIRLRPPRLPRPRPRPVSPPRP,-0.00493
19,RRIRARPPRLPRPRPRPSIAPRP,0.186
20,RRIRDRPPRLPRPRPRPWHVPRP,0.015
21,RRIRARPPRLPRPRPRPCDIPRP,-0.2
22,RRIRERPPRLPRPRPRPSYVPRP,-0.264
23,RRIRQRPPRLPRPRPRPWGWPRP,0.546
24,RRIRERPPRLPRPRPRPAPAPRP,0.305
25,RRIRCRPPRLPRPRPRPMMDPRP,-0.117

row,Sequence,shrunken log2 fold change
1,RRIRFRPPRLPRPRPRPMVWPRP,0.156
2,RRIRYRPPRLPRPRPRPTMPPRP,-0.725
3,RRIRARPPRLPRPRPRPYIGPRP,0.00388
4,RRIRPRPPRLPRPRPRPRIVPRP,-0.0281
5,RRIRARPPRLPRPRPRPSWIPRP,-0.0935
6,RRIRKRPPRLPRPRPRPQHCPRP,-0.0588
7,RRIRQRPPRLPRPRPRPGEVPRP,-0.102
8,RRIRRRPPRLPRPRPRPTLNPRP,0.511
9,RRIRNRPPRLPRPRPRPCWIPRP,-0.00906
10,RRIRYRPPRLPRPRPRPRIAPRP,0.00898
11,RRIRWRPPRLPRPRPRPCMAPRP,0.312
12,RRIRQRPPRLPRPRPRPTGHPRP,0.00113
13,RRIRARPPRLPRPRPRPKGEPRP,0.556
14,RRIRMRPPRLPRPRPRPYGIPRP,-0.0497
15,RRIRLRPPRLPRPRPRPMKEPRP,-0.019
16,RRIRIRPPRLPRPRPRPLIAPRP,-0.24
17,RRIRLRPPRLPRPRPRPEVWPRP,0.276
18,RRIRRRPPRLPRPRPRPGANPRP,0.208
19,RRIRTRPPRLPRPRPRPKMLPRP,-0.204
20,RRIRRRPPRLPRPRPRPELTPRP,-0.0257
21,RRIRNRPPRLPRPRPRPYEMPRP,-0.0417
22,RRIRYRPPRLPRPRPRPPKLPRP,-0.172
23,RRIRFRPPRLPRPRPRPMGYPRP,-0.226
24,RRIRSRPPRLPRPRPRPHPYPRP,-0.807
25,RRIRLRPPRLPRPRPRPIKLPRP,-0.515

row,Sequence,shrunken log2 fold change
1,RRIRMRPPRLPRPRPRPDVQPRP,-0.00142
2,RRIRERPPRLPRPRPRPVYIPRP,-0.0234
3,RRIRTRPPRLPRPRPRPQHSPRP,-0.183
4,RRIRNRPPRLPRPRPRPEDRPRP,0.0787
5,RRIRNRPPRLPRPRPRPYRPPRP,-0.379
6,RRIRDRPPRLPRPRPRPTTSPRP,0.335
7,RRIRYRPPRLPRPRPRPYSAPRP,-1.51
8,RRIRRRPPRLPRPRPRPLILPRP,0.0353
9,RRIRMRPPRLPRPRPRPDLIPRP,0.0508
10,RRIRRRPPRLPRPRPRPHQEPRP,-0.0374
11,RRIRKRPPRLPRPRPRPGIIPRP,-0.000605
12,RRIRKRPPRLPRPRPRPRVAPRP,1.11
13,RRIRNRPPRLPRPRPRPITIPRP,-0.366
14,RRIRSRPPRLPRPRPRPPIWPRP,0.0326
15,RRIRARPPRLPRPRPRPFAWPRP,0.122
16,RRIRSRPPRLPRPRPRPCCFPRP,-0.0695
17,RRIRWRPPRLPRPRPRPQPNPRP,0.127
18,RRIRARPPRLPRPRPRPNNHPRP,-0.381
19,RRIRARPPRLPRPRPRPLWWPRP,0.648
20,RRIRCRPPRLPRPRPRPQSWPRP,0.69
21,RRIRKRPPRLPRPRPRPRPDPRP,0.446
22,RRIRQRPPRLPRPRPRPECVPRP,0.386
23,RRIRRRPPRLPRPRPRPFRWPRP,0.279
24,RRIRCRPPRLPRPRPRPSCDPRP,-0.0533
25,RRIRERPPRLPRPRPRPISFPRP,-0.441

row,Sequence,shrunken log2 fold change
1,RRIRTRPPRLPRPRPRPGTNPRP,-0.0901
2,RRIRKRPPRLPRPRPRPMRNPRP,1.32
3,RRIRDRPPRLPRPRPRPHIAPRP,0.0931
4,RRIRYRPPRLPRPRPRPSWLPRP,-0.78
5,RRIRRRPPRLPRPRPRPPCSPRP,0.112
6,RRIRDRPPRLPRPRPRPEPNPRP,0.746
7,RRIRARPPRLPRPRPRPTPHPRP,0.598
8,RRIRHRPPRLPRPRPRPYFAPRP,0.52
9,RRIRRRPPRLPRPRPRPIYWPRP,0.08
10,RRIRQRPPRLPRPRPRPKDTPRP,-0.0272
11,RRIRLRPPRLPRPRPRPPIGPRP,0.142
12,RRIRMRPPRLPRPRPRPVAMPRP,0.57
13,RRIRQRPPRLPRPRPRPLISPRP,-0.173
14,RRIRTRPPRLPRPRPRPCMAPRP,-0.172
15,RRIRLRPPRLPRPRPRPYRFPRP,0.0498
16,RRIRNRPPRLPRPRPRPQFFPRP,-0.0257
17,RRIRARPPRLPRPRPRPPYAPRP,0.251
18,RRIRCRPPRLPRPRPRPYLAPRP,-0.44
19,RRIRPRPPRLPRPRPRPNPFPRP,-0.382
20,RRIRDRPPRLPRPRPRPLYNPRP,-0.321
21,RRIRIRPPRLPRPRPRPVMNPRP,-0.61
22,RRIRVRPPRLPRPRPRPYCKPRP,-1.15
23,RRIRLRPPRLPRPRPRPHHVPRP,-0.272
24,RRIRIRPPRLPRPRPRPCSDPRP,-0.0062
25,RRIRMRPPRLPRPRPRPHGIPRP,0.0295

row,Sequence,shrunken log2 fold change
1,RRIRPRPPRLPRPRPRPDPFPRP,-0.0897
2,RRIRPRPPRLPRPRPRPMTRPRP,0.0702
3,RRIRLRPPRLPRPRPRPFCFPRP,-0.213
4,RRIRLRPPRLPRPRPRPQRQPRP,0.316
5,RRIRRRPPRLPRPRPRPWFIPRP,0.0648
6,RRIRARPPRLPRPRPRPKTNPRP,0.436
7,RRIRGRPPRLPRPRPRPKTGPRP,0.692
8,RRIRARPPRLPRPRPRPGNAPRP,0.73
9,RRIRERPPRLPRPRPRPTWQPRP,0.0759
10,RRIRWRPPRLPRPRPRPYNSPRP,-0.178
11,RRIRKRPPRLPRPRPRPEYVPRP,-0.00396
12,RRIRIRPPRLPRPRPRPIKMPRP,-0.177
13,RRIRSRPPRLPRPRPRPEYEPRP,-0.0387
14,RRIRQRPPRLPRPRPRPTFRPRP,-0.232
15,RRIRWRPPRLPRPRPRPWNKPRP,0.087
16,RRIRGRPPRLPRPRPRPAQEPRP,0.547
17,RRIRCRPPRLPRPRPRPTGLPRP,0.106
18,RRIRMRPPRLPRPRPRPAFKPRP,-0.323
19,RRIRPRPPRLPRPRPRPLVWPRP,0.412
20,RRIRERPPRLPRPRPRPGYMPRP,-0.172
21,RRIRKRPPRLPRPRPRPVLCPRP,0.241
22,RRIRKRPPRLPRPRPRPQHNPRP,-0.145
23,RRIRFRPPRLPRPRPRPEIIPRP,-0.0938
24,RRIRVRPPRLPRPRPRPQFIPRP,-0.128
25,RRIRERPPRLPRPRPRPELSPRP,0.314

# — the supplement of paper PMC9112550, “Optimization of the antimicrobial peptide Bac7 by deep mutational scanning” (BMC Biology, 2022)
